Values of other authors, collected in paper PMC13341169.
Where two headings read alike, the source gives them in different places.

Legend:
[1] = molecular target: PKA C-subunit (Homo sapiens) (UniProt P17612)
[2] = molecular target: PKA C-subunit (Homo sapiens) (UniProt P17612); remark: listed apart in the source

For PKIβ (from UniProt Q9C010), the Kd [1] is listed as 7.1 nM.

For PKIγ (from UniProt Q9Y2B9), the Kd [2] is listed as 0.4 nM.
